Reference: patent publication US20160310575A1 (INDIANA UNIVERSITY RESEARCH AND TECHNOLOGY, published 2016)
Non-standard residues stand in square brackets, D forms with d. No end group written: not given here. Aib = CC(C)(N)C(=O)O

Legend:
human GIP-R = target: T1, human GIP-R (human, UniProt P48546 22-466); test: cell-based or functional assay
T1 sequence (looked up): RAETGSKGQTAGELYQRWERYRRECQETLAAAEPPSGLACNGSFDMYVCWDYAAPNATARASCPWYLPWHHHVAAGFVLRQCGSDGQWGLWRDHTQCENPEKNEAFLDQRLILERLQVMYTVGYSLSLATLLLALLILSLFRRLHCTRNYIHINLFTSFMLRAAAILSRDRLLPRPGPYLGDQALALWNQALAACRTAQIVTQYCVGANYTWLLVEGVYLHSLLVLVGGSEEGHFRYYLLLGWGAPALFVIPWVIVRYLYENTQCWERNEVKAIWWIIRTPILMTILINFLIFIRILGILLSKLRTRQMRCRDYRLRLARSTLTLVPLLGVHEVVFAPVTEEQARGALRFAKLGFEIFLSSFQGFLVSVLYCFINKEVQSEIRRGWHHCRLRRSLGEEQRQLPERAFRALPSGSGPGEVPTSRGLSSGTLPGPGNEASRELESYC

human GLP-R = human GLP-R (human, UniProt P43220 24-463); test: cell-based or functional assay

B1: PEG-peptide-long24A (peptide)
peptide: Y[Aib]EGTFTSDYSIYLDKQAA[Aib]EFVAWLLAGGPSSGAPPPSKLPETGGSGS-NH2
modifications: also: PEG (site and size not given here)
EC50 [nM], GIP-R (cAMP assay) (human GIP-R): 7.51 nM | EC50 [nM], GLP1-R (cAMP assay) (human GLP-R): 3.89 nM
